PMC12117036

Target: rhodamine-labeled rabbit skeletal muscle actin (rabbit) (UniProt P68135)

Chain of espin (ectoplasmic specialization protein), recombinant protein (B1AK53 whole entry): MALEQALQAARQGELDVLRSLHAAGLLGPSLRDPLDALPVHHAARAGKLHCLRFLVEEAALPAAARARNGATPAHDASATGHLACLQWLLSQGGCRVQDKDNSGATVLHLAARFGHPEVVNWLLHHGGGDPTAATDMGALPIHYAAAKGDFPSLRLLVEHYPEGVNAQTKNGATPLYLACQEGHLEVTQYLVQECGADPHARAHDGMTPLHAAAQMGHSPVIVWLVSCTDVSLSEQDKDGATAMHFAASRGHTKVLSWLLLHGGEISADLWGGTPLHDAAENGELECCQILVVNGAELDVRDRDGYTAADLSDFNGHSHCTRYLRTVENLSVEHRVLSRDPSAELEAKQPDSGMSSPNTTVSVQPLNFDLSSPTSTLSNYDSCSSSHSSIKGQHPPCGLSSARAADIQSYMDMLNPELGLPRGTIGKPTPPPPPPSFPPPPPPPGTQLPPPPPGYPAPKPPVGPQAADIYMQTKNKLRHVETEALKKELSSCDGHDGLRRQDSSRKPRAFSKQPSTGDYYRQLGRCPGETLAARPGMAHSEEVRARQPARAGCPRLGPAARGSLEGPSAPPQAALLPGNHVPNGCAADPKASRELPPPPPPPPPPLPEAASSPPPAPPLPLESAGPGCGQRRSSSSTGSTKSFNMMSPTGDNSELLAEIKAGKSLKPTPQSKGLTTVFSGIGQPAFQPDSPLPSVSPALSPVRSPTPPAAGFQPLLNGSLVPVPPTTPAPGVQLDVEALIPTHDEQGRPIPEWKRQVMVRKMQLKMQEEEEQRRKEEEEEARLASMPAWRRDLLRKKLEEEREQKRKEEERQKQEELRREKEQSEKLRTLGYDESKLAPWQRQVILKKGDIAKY

minimum concentration of purified espin at which bundling of pre-polymerized rhodamine-actin filaments (3 uM) was seen by confocal imaging (Fig. 4L): 100 nM
Substance: espin (ectoplasmic specialization protein), recombinant protein (from UniProt B1AK53 1-854) (natural protein)
